Results on two molecules are retold here after US10920254B2, “Methods and materials for producing 5 and 7-carbon monomers” (INVISTA North America S.á.r.l., priority 2015, dated 2021).

A short description of the assay: carboxylate reductase enzyme activity assay (N7-acetyl-7-aminoheptanoate to N7-acetyl-7-aminoheptanal), NADPH consumption at 340 nm. As to conditions: purified enzyme enhanced by gene product of sfp; 2 mM N7-acetyl-7-aminoheptanoate, 1 mM ATP, 1 mM NADPH, pH 7.5, room temperature, 20 min; FIG. 10. It is filed as biochemical. On the procedure: The activity of each of the N-terminal His-tagged carboxylate reductases of SEQ ID NOs: 3, 5, and 6 (see Examples 2 and 3, and FIG. 6B, FIGS. 6D-6E) for converting N7-acetyl-7-aminoheptanoate to N7-acetyl-7-aminoheptanal was assayed in triplicate in a buffer composed of a final concentration of 50 mM HEPES buffer (pH=7.5), 2 mM N7-acetyl-7-aminoheptanoate, 10 mM MgCl2, 1 mM ATP, and 1 mM NADPH. The assays were initiated by adding purified carboxylate reductase and phosphopantetheine transferase or the empty vector control to the assay buffer containing the N7-acetyl-7-aminoheptanoate then incubated at room temperature for 20 min. The consumption of NADPH was monitored by absorbance at 340 nm.

B1: SEQ ID NO: 5: Mycobacterium massiliense carboxylate reductase, N-terminal HIS tagged (protein, listed as Mycobacterium abscessus)
chain: MTNETNPQQEQLSRRIESLRESDPQFRAAQPDPAVAEQVLRPGLHLSEAIAALMTGYAERPALGERARELVIDQDGRTTLRLLPRFDTTTYGELWSRTTSVAAAWHHDATHPVKAGDLVATLGFTSIDYTVLDLAIMILGGVAVPLQTSAPASQWTTILAEAEPNTLAVSIELIGAAMESVRATPSIKQVVVFDYTPEVDDQREAFEAASTQLAGTGIALETLDAVIARGAALPAAPLYAPSAGDDPLALLIYTSGSTGAPKGAMHSENIVRRWWIREDVMAGTENLPMIGLNFMPMSHIMGRGTLTSTLSTGGTGYFAASSDMSTLFEDMELIRPTALALVPRVCDMVFQRFQTEVDRRLASGDTASAEAVAAEVKADIRDNLFGGRVSAVMVGSAPLSEELGEFIESCFELNLTDGYGSTEAGMVFRDGIVQRPPVIDYKLVDVPELGYFSTDKPHPRGELLLKTDGMFLGYYKRPEVTASVFDADGFYMTGDIVAELAHDNIEIIDRRNNVLKLSQGEFVAVATLEAEYANSPVVHQIYVYGSSERSYLLAVVVPTPEAVAAAKGDAAALKTTIADSLQDIAKEIQLQSYEVPRDFIIEPQPFTQGNGLLTGIAKLARPNLKAHYGPRLEQMYAEIAEQQAAELRALHGVDPDKPALETVLKAAQALLGVSSAELAADAHFTDLGGDSLSALSFSDLLRDIFAVEVPVGVIVSAANDLGGVAKFVDEQRHSGGTRPTAETVHGAGHTEIRAADLTLDKFIDEATLHAAPSLPKAAGIPHTVLLTGSNGYLGHYLALEWLERLDKTDGKLIVIVRGKNAEAAYGRLEEAFDTGDTELLAHFRSLADKHLEVLAGDIGDPNLGLDADTWQRLADTVDVIVHPAALVNHVLPYNQLFGPNVVGTAEIIKLAITTKIKPVTYLSTVAVAAYVDPTTFDEESDIRLISAVRPIDDGYANGYGNAKWAGEVLLREAHDLCGLPVAVFRSDMILAHSRYTGQLNVPDQFTRLILSLIATGIAPGSFYQAQTTGERPLAHYDGLPGDFTAEAITTLGTQVPEGSEGFVTYDCVNPHADGISLDNFVDWLIEAGYPIARIDNYTEWFTRFDTAIRGLSEKQKQHSLLPLLHAFEQPSAAENHGVVPAKRFQHAVQAAGIGPVGQDGTTDIPHLSRRLIVKYAKDLEQLGLL
modifications: N-terminal His tag; Mycobacterium abscessus subsp. bolletii
notes: Mycobacterium massiliense carboxylate reductase, N-terminal HIS tagged
Take B1: the “acceptance of N7-acetyl-7-aminoheptanoate as substrate (NADPH consumption), confirmed against the empty vector control” value is recorded as “accepted N7-acetyl-7-aminoheptanoate as substrate”.

B2: SEQ ID NO: 3: Mycobacterium smegmatis carboxylate reductase, N-terminal HIS tagged (protein, listed as Mycobacterium smegmatis)
chain: MTSDVHDATDGVTETALDDEQSTRRIAELYATDPEFAAAAPLPAVVDAAHKPGLRLAEILQTLFTGYGDRPALGYRARELATDEGGRTVTRLLPRFDTLTYAQVWSRVQAVAAALRHNFAQPIYPGDAVATIGFASPDYLTLDLVCAYLGLVSVPLQHNAPVSRLAPILAEVEPRILTVSAEYLDLAVESVRDVNSVSQLVVFDHHPEVDDHRDALARAREQLAGKGIAVTTLDAIADEGAGLPAEPIYTADHDQRLAMILYTSGSTGAPKGAMYTEAMVARLWTMSFITGDPTPVINVNFMPLNHLGGRIPISTAVQNGGTSYFVPESDMSTLFEDLALVRPTELGLVPRVADMLYQHHLATVDRLVTQGADELTAEKQAGAELREQVLGGRVITGFVSTAPLAAEMRAFLDITLGAHIVDGYGLTETGAVTRDGVIVRPPVIDYKLIDVPELGYFSTDKPYPRGELLVRSQTLTPGYYKRPEVTASVFDRDGYYHTGDVMAETAPDHLVYVDRRNNVLKLAQGEFVAVANLEAVFSGAALVRQIFVYGNSERSFLLAVVVPTPEALEQYDPAALKAALADSLQRTARDAELQSYEVPADFIVETEPFSAANGLLSGVGKLLRPNLKDRYGQRLEQMYADIAATQANQLRELRRAAATQPVIDTLTQAAATILGTGSEVASDAHFTDLGGDSLSALTLSNLLSDFFGFEVPVGTIVNPATNLAQLAQHIEAQRTAGDRRPSFTTVHGADATEIRASELTLDKFIDAETLRAAPGLPKVTTEPRTVLLSGANGWLGRFLTLQWLERLAPVGGTLITIVRGRDDAAARARLTQAYDTDPELSRRFAELADRHLRVVAGDIGDPNLGLTPEIWHRLAAEVDLVVHPAALVNHVLPYRQLFGPNVVGTAEVIKLALTERIKPVTYLSTVSVAMGIPDFEEDGDIRTVSPVRPLDGGYANGYGNSKWAGEVLLREAHDLCGLPVATFRSDMILAHPRYRGQVNVPDMFTRLLLSLLITGVAPRSFYIGDGERPRAHYPGLTVDFVAEAVTTLGAQQREGYVSYDVMNPHDDGISLDVFVDWLIRAGHPIDRVDDYDDWVRRFETALTALPEKRRAQTVLPLLHAFRAPQAPLRGAPEPTEVFHAAVRTAKVGPGDIPHLDEALIDKYIRDLREFGLI
modifications: N-terminal His tag
notes: Mycobacterium smegmatis carboxylate reductase, N-terminal HIS tagged
Consider B2, for which the “acceptance of N7-acetyl-7-aminoheptanoate as substrate (NADPH consumption), confirmed against the empty vector control” value is “accepted N7-acetyl-7-aminoheptanoate as substrate”.
